To fix the notation:
B1: Translocated intimin receptor Tir (Escherichia coli O127:H6 (strain E2348/69 / EPEC)), B7UM99 (parent)
chain: MPIGNLGNNVNGNHLIPPAPPLPSQTDGAARGGTGHLISSTGALGSRSLFSPLRNSMADSVDSRDIPGLPTNPSRLAAATSETCLLGGFEVLHDKGPLDILNTQIGPSAFRVEVQADGTHAAIGEKNGLEVSVTLSPQEWSSLQSIDTEGKNRFVFTGGRGGSGHPMVTVASDIAEARTKILAKLDPDNHGGRQPKDVDTRSVGVGSASGIDDGVVSETHTSTTNSSVRSDPKFWVSVGAIAAGLAGLAATGIAQALALTPEPDDPTTTDPDQAANAAESATKDQLTQEAFKNPENQKVNIDANGNAIPSGELKDDIVEQIAQQAKEAGEVARQQAVESNAQAQQRYEDQHARRQEELQLSSGIGYGLSSALIVAGGIGAGVTTALHRRNQPAEQTTTTTTHTVVQQQTGGNTPAQGGTDATRAEDASLNRRDSQGSVASTHWSDSSSEVVNPYAEVGGARNSLSAHQPEEHIYDEVAADPGYSVIQNFSGSGPVTGRLIGTPGQGIQSTYALLANSGGLRLGMGGLTSGGESAVSSVNAAPTPGPVRFV
B2: Translocated intimin receptor Tir (Escherichia coli O157:H7), Q7DB77 (parent)
chain: MPIGNLGHNPNVNNSIPPAPPLPSQTDGAGGRGQLINSTGPLGSRALFTPVRNSMADSGDNRASDVPGLPVNPMRLAASEITLNDGFEVLHDHGPLDTLNRQIGSSVFRVETQEDGKHIAVGQRNGVETSVVLSDQEYARLQSIDPEGKDKFVFTGGRGGAGHAMVTVASDITEARQRILELLEPKGTGESKGAGESKGVGELRESNSGAENTTETQTSTSTSSLRSDPKLWLALGTVATGLIGLAATGIVQALALTPEPDSPTTTDPDAAASATETATRDQLTKEAFQNPDNQKVNIDELGNAIPSGVLKDDVVANIEEQAKAAGEEAKQQAIENNAQAQKKYDEQQAKRQEELKVSSGAGYGLSGALILGGGIGVAVTAALHRKNQPVEQTTTTTTTTTTTSARTVENKPANNTPAQGNVDTPGSEDTMESRRSSMASTSSTFFDTSSIGTVQNPYADVKTSLHDSQVPTSNSNTSVQNMGNTDSVVYSTIQHPPRDTTDNGARLLGNPSAGIQSTYARLALSGGLRHDMGGLTGGSNSAVNTSNNPPAPGSHRFV

In the first experiment the parent is B1. As to conditions: with ptn6_human PTPN6, P29350.
Target sequence in this assay (P29350 whole entry): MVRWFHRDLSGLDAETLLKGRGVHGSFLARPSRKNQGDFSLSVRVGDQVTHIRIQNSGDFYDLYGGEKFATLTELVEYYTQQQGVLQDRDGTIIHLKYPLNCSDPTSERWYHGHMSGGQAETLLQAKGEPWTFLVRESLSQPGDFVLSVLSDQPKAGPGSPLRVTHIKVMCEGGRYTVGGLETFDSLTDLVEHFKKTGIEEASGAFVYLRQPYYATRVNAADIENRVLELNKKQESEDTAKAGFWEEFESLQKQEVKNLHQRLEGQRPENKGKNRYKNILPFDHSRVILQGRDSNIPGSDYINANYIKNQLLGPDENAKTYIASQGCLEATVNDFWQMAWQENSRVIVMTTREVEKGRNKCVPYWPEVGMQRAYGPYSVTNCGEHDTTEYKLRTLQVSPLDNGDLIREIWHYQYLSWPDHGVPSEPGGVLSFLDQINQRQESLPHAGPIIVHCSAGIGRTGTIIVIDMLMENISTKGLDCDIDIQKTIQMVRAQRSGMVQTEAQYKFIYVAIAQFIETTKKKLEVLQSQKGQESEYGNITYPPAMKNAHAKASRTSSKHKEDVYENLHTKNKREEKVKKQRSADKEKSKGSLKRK
As to Y483F;Y511F, the “effect of a mutation on the interaction” value is recorded as “decreasing interaction”.

As for Y483F, the “effect of a mutation on the interaction” value is “decreasing interaction”.

Y511F: the “effect of a mutation on the interaction” value is “decreasing interaction”.

Another experiment covers variants of B1. To be noted: with ptn6_mouse Ptpn6, P29351.
Sequence of ptn6_mouse Ptpn6, P29351 (P29351 whole entry): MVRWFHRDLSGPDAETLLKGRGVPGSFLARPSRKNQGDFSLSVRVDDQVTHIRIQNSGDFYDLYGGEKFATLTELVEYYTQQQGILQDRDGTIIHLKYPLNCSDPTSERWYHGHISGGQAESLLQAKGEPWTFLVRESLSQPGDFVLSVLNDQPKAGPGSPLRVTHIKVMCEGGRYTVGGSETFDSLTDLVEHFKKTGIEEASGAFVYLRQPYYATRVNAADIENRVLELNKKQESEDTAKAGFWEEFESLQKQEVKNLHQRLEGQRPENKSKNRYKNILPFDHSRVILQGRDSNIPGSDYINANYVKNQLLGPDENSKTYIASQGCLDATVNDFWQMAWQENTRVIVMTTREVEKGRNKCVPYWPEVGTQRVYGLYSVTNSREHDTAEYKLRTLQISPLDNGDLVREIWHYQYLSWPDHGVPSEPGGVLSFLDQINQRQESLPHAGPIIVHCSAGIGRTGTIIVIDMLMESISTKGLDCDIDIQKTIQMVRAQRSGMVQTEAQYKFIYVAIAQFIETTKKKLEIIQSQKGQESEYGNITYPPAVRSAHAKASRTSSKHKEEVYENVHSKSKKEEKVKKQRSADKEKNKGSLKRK
As to Y483F;Y511F, the “effect of a mutation on the interaction” value is on record as “decreasing interaction”.

In the next experiment the parent is B2. As to conditions: with ptn6_human PTPN6, P29350.
Target sequence in this assay (P29350 whole entry): as the sequence (P29350 whole entry) above
As for Y490F;Y519F, the “effect of a mutation on the interaction” value is reported as “decreasing interaction”.

Values taken from IntAct's records for PubMed 23001144.
